{"source": "patent US9371374", "about": "(AbbVie / Abbott, dated 2016)", "binders": {"B1": {"name": "HCV 208B-862 (antibody, V domains shown)", "VH": "DVQLQESGPGLVKPSQSLSLTCTVTGYSITSDYAWNWIRQFPGNKLEWMGYISYSGTTVYSPSLKSRISITRDTSKNQFFLQLNSVTIEDSATYYCGGNYWGQGTLVTVSA", "VL": "DVVLTQTPLSLPLSLGDQASISCRSSQTLLHSDGDTYLHWYLQKPGQSPKLLIYKLSNRFSGVPDRFSGSGSGTDFTLKISRVEAEDLGVYFCSQSTHVPYTFGGGTKLEIKR"}}, "key": {"[1]": {"biological_target": "HCV Core 134-171-TT peptide (ALRZ-9 peptide) (HCV-1)", "experiment": "SPR, captured mAb;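 also: Anti-HCV Core mAbs from hybridoma supernatants held on a rabbit anti-mouse IgG CM5 surface, peptide flowed over 3 min then 4 min dissociation, duplicate concentrations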"}, "HCV Core1-169 [2]": {"biological_target": "T1, HCV Core1-169 (HCV-1, UniProt P26664 1-169)", "T1 construct": "also called Solid Phase HCV Core", "T1 sequence": "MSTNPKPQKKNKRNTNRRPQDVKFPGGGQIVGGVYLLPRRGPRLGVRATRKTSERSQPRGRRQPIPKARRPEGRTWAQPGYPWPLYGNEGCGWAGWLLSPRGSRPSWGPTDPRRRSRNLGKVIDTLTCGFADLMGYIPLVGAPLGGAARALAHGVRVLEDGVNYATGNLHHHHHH", "experiment": "EIA, core captured by anti-domain 1 mAb"}, "HCV Core1-169 [3]": {"biological_target": "T1, HCV Core1-169", "experiment": "SPR sandwich, C11-7 capture"}, "HCV Core1-169 [4]": {"biological_target": "T1, HCV Core1-169", "experiment": "SPR sandwich, C11-3 capture"}, "HCV Core1-169 [5]": {"biological_target": "T1, HCV Core1-169", "experiment": "SPR sandwich, C11-14 capture"}, "HCV Core1-169 [6]": {"biological_target": "T1, HCV Core1-169", "experiment": "EIA, coated core1-169"}, "HCV Core1-169 [7]": {"biological_target": "T1, HCV Core1-169", "experiment": "SPR sandwich, C11-9 capture"}}, "data": [{"binder": "B1", "values": [{"measurement": "Kd", "setting": "[1]", "value": 0.07, "unit": "nM"}, {"measurement": "koff", "setting": "[1]", "value": 0.0001, "unit": "s⁻¹"}, {"measurement": "kon", "setting": "[1]", "value": "1.4e+06", "unit": "M⁻¹ s⁻¹"}, {"measurement": "OD (A492)", "setting": "HCV Core1-169 [2]", "value": 1.07, "unit": "OD"}, {"measurement": "expected % binding", "setting": "HCV Core1-169 [3]", "value": 15.2, "unit": "%"}, {"measurement": "expected % binding", "setting": "HCV Core1-169 [4]", "value": 11.2, "unit": "%"}, {"measurement": "expected % binding", "setting": "HCV Core1-169 [5]", "value": 12.6, "unit": "%"}, {"measurement": "OD (A492)", "setting": "HCV Core1-169 [6]", "value": 0.49, "unit": "OD"}, {"measurement": "expected % binding", "setting": "HCV Core1-169 [7]", "value": 8.9, "unit": "%"}]}]}
